The NTF2 design screens of Basanta et al. (2020)

Assay: protease stability score; higher = more stable; yeast display proteolysis, trypsin and chymotrypsin;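 note: relative to predicted unfolded state with 0 unfolded-like and 1 meaning tenfold more protease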

Going from “REEEEEVKRNAHITVHILLTGDFHHHSRLFDPHVRSEWNGVELHGMEEDLKWWIELVKHLRFKHFEIHDIRVYDGVADNDINEVIKVNGKDFTFKSSIILIIINGQIRELKFVIN” to “DEDEKEQKEIADLWKKYVDTGDEKLLMELMDPTARLNIGDKRFHGRETFEHVMREIKKRYDHFELHIHHIDIQGEKIRMEGREINKFDGKTVDIRTRIRIIVVNGRITFLHHQLD”, the protease stability score rises from 0.073 to 0.622.

Compared with “REEEKMFTMILEIIKHSLVTGDEDLTRNLVDPNMRLEINGQEVHGREEILRVLLELRVKEMHIDDVKFQGDKAEIDGTLDIEWNGQEDHLKVEIIFRKINGRWHIESIRLE”, “HEEEEKVERYTRMYWNHLLTGDEDILQELMDPHARSTEIYGDFRIENHGRKAQHWLLRRIDHITSLRIHDVQIVDGVALVDSESDYRIGDKEIRVRTELIVHVVNGKIKSVSISVR” is lower in protease stability score: 1.48 for the first, 0.896 for the second.

First: TEEEHLVEEMARRMLHSWLTGDEETLERLLDPNVRLEMIIDGVELRLHGREDMSRWLREWVERVDHVEIEIKRIRLIGEKSILDGQIHERQGDKERVIKTEIIVVVVDGRIHNSKIIIR
Second: DEEEKRWRHMTHLFWHIEKTGNEDRLSKLADPDVRLNINGVHAHGREEVISVLREFQERYKNLTIHIKDIKVFDGVVFIDGEDHFDGVTVKSLVIIFIVNGRIKEIEHRRE
The protease stability score of the first is lower: 1.14 for the first, 1.62 for the second.

Going from “DEEEKLWHEVARLEFELIHTGNEETWNKLADPHTRTDINGKKLHGREDFAKWSLEFLRKVKGMTMELRSTHIQGNKIRLIIRLIVDGREVKLDLEIVIINGKLREVKMEVEDT” to “SEEHEEAEHWVRLFIEFMLTGDFDEYRQLMDPNDYIEVGDKSLIGMENWHHLLNRVKNLTIRVKRVRVRVVNGRIHVEMDVRDIINGQEVETRIEMVAVKVNGRWLLKTVHLERE”, the protease stability score falls from 2.56 to 1.74.

Going from “SETKKLWKDLADEVLRAWETGNEEEMEKMLDPHTRLHIHINGRDFHAHGRENIIRMMKFTLDFLGIDHFILRRVTYINGVVHIHQQVIINGQESNVRLEVEIIDGVWHEISVDIH” to “DESHRESKLANELLKLALHTGDEDLLRELLDPRMRLEIGDKEFIGRDIMVQAMHEFYRELGVKHTDLKIKRVEIQGNKVINEGILWFHVGDKEHWVSTEFQSVKVNGRWLLQVFSIK”, the protease stability score falls from 1.44 to 1.35.

Compared with “DEDEELIEKLLRLEEFAHKTGDERIMEELADPNTRLDINGRREHGMESFIRWLREARYTHFIWRDKIEIGEKMEIQGEVEGTYNGVRHRTEVILFVEKINGRWIIKEIEVR”, “DELEELEKEAIKESEDILRTGDEERILRLADPNVRVDIDGVVRHGREWWTRLFSDELRKFKGARIRLKEIRSFDGRIRIDTTLEVDGVTRDMYVISEKVNGRWIIRSIHYE” is lower in protease stability score: 1.76 for the first, 1.33 for the second.

Compared with “DEREELIQRFLEMLIHLYLTGDEDWFLRMADPNARLHWNGKDRHGREIILEELIRLLRRFDHVRIDVKKFEVQGDKVIADGLEIYTQGDKRIEVDTKIVLTTVNGKLKTLVWHID”, “SEKEEQAFRLFKDIVRSMKTGDEDRLHELFDPNVRMDFNGVESHGRELALEVIRIVWREIRIKNIEVHHIEVIGNYVRIDSRLDGRYDGRRIILEMHVQLVKVDGQWIVHNIEIK” is higher in protease stability score: 0.642 for the first, 2.12 for the second.

First: DEHEEELKRILELIEHLIHTGDEDTMLHLADPNVRSHVNGRDRHGWNLYLRLLEELVWRLGIKHMEIHSTTAIDGRVIIHMRLHVGDKTIHVILLFQVVDGRVKSSSVEVHEE
Second: DEREEASERMAELIVHLFETGDEDLIRRMVDPHVRWEFNGREIMGRELTTHVLHEIYHRVKNIRYRIESLDIQGDWLLVNSRLHVNGRTIEIHLIVEKVNGRWTLRELIVKVD
The protease stability score of the first is lower: 1.44 for the first, 1.65 for the second.

Going from “TEEHDEAHEVLKIFLEIHETGDEDDMKRLADPHARLNIGDKEYHGWKHFIEWLHKIKNVTSEIHHVHVYNGKVKTEVDLHVNGQDVKIILIMEKINGRWILQSVEVR” to “DEDDENIEKVLRTLFKLIHTGDWRTWLRFFDPHVKLEIGDKRLHGREVAEEFIRHRIEHLGVDRVEVRLHSFDKQGNKLHSDMRLYVGDKEFNVEMHMEKVNGKWIVRVFSID”, the protease stability score rises from 1.29 to 1.38.

Compared with “DELEHMVRLLLKIWIHALITGDEELMMDQADPNVRLIIGDKIHHGMETFEEWVHQFKNLTVKHIVLRHTHYQGNKARIVGHLDIEINGRHHRLQTEIVIHKFNGKWYISDLRFD”, “DEEEEFATRIMKILLKALLTGDETTLKHLIDPHTRFIFVIGEKIVHVHGRDEIAKFWETLRREIRIEDITIDRIRVQGEKVETDGYIHIWIGDKLVDVESHDEWVIVNGRIKHIRMEIK” is higher in protease stability score: 0.646 for the first, 1.93 for the second.

Compared with “DELHELVKRYWDRWIESMLTGDFDANHELVDPHARVDIGDKRFHGRELYELHYKRIDHFHIHEINIRHIEVVDGRVHIDVIMHTFEIVNGVKFSHHFRQIIIIEKVDGRWVVRRIIVK”, “SEDDEITHYILQLWLDLVQTGDEEKLTDLHDPHVRNRINGREKHGRERAAELLSRLKKALGIDHIHRLMIEDFRIQGEKIQLHVRIKQEINGQEFTRSIELILLKINGRWSVESIDIR” is higher in protease stability score: 1.01 for the first, 1.42 for the second.

Compared with “DDEERWTEEMYRIMIHIEKTGDEHTFSRLADPNVRLIVGDKHFHGRETFIEQLRKLIEHIRVEKIEIRHVELVGEKVILVMKRLSRIDGREVELEVHVEIVIVNGRYKMIRIEIR”, “SELEETLKRSYELLSRILETGDEHRLKSLADPHTRMDFNGVEVHGMHLTVQWMKEFGADHEQYEVRIKRLDVQGDKLHSHGLLIIRIFINGRTIDLKIETHMHAEKIDGRWVIREIIWR” is lower in protease stability score: 1.43 for the first, 1.36 for the second.

First: DEDEKIYRWALSVFLRNFLTGDEDSLRRMMDPDVRLEVGDKEDHGMEKVVRWLTEMMRKFKGATVHLRDHKTQGNKVHLDLELNVGDKHSKLIIIIKKVDGQWIVDEFTVH
Second: DDLERLVRELLDLWKRALKTGDEDVLSKMFDPDVRLTINGQVSVGREDVLRLWQEWRVDRMEERDVTVQGDKIHMDGHSHVEYDGRRIEVRHEIILVIVNGRAKSQEVRIR
The protease stability score of the first is lower: 1.52 for the first, 1.62 for the second.

Going from “SEDEHHIERMLKLFVKAVKTGDEDTLVKLLDPHARLHIGDKDHHGWEDIYKHEHELGLDRVEMDIHRIHLQGDKINVDGTLFIDGKHIEVVIYAKKVNGRWFVETREIR” to “DESKDDSRRAVNLVVRTIQTGDWDLLIELLDPNVKIEINGQDLHGRETLFKTWLDEMRKLGVDRVHVELKHIEVQGEKVIVHVDVSVNGRDIKTEIIIHKVDGKWFIKSLHFK”, the protease stability score rises from 1.22 to 1.31.

First: TEEEELLTRLARQILRWLLTGDEDKHSRMLDPRDRSVIGDKESVGMEESVKNWRIWLEEMRLKHVQLRDVRIVDGVVHLDIHLFGHINGVHIDRESRMDVYIVNGRIHRIRIIEH
Second: DDIEKDIREVLDILIRAFQTGDEDKILELFDPHARVDVGEYHNHGWERVEEWMHRVDHIDVRRLEIKHFHHINGRIVLHTHFDGILTINGREIHTETEVHIILVKINGKWYFKEISHH
The protease stability score of the first is lower: 1.3 for the first, 2.12 for the second.

First: SEEEDESKLATELLIKLLRTGNEHLSERLMDPNMRIVVNGVELHGREEAQRHMREMITQIKNAKIEIRDERTQGEYIKVNMILHYGDKTIDLRVVLVKVDGRWKITEIVLN
Second: NERTEEIEEAMERMLEWWRTGNFEDINKNLDPNMRTHVFIDGREVLFHGRELMLEIFDRMGVDHIEVTHFDVIGNKVEVHSRSHQGDKHVDIKLVLEKIDGRWILSQIHIRIE
The protease stability score of the first is lower: 1.8 for the first, 1.94 for the second.

Compared with “DEDEEMVEKALELMAETHETGDEDTLHDFFDPHTRMELQIGDKTIRDHGRHAMHWLLRILGINHIEIHHRTVRLINGRIHLHINGSINVNGQEIESRIHIYSEKIDGRWRVTRLEYRFH”, “DEDEHHIRTALEYLRHATETGDEELMSEMADPDVRVHVNGVELHGMESYEKWLHDVLREIRIRHVHLEDSKVIGDFVRLDLRVHTEVNGRHFRHQTILISFKYNGQWRIKSVIWR” is higher in protease stability score: 1.31 for the first, 1.37 for the second.

Compared with “SEDEEEATHLSRVLIELLKTGDEEMLEHLADPNDRNDFNGRVKHGRELVTKMLRKLMTDLGIDHIEHVTLRRLEVQGEWVKFNFEIIGRVNGRELSFRVRFIMEKVDGKWRLSERHTI”, “DEEALKKLQDILRRNDQDKMNKMIDKDVRVVIGEHEYRGKRNVQEALKREYEHADRFEVKHIEDHGDKLHVDVVLRVDGRDIRFVVVIDVHNGNIRNVKVDFTDEDTQRDFQRQLD” is lower in protease stability score: 1.71 for the first, 1.02 for the second.

First: DEHDEYLHHLLKVLWELIMTGDEHTFERLADPNVRLEVGNYFHVGRENIREMWKFLHDLLGVDHFRLHIRDLRVFNGVADAEYELRLNQGDKETRIEVRIYVHIVNGVLKSIRIETH
Second: SEEEHTSEEALRAFVFLELTGDEKSLIELLDPRTRIHAENHEVVGRERATEEWRRWLEFYKNIRVHDVEIEEIHLIDGRIKLIMRRDGVINGVKRETHIRMITNKVNGRWLVHSIIIR
The protease stability score of the first is higher: 1.44 for the first, 1.37 for the second.

Compared with “SEEDEHLRHLAELFVKLLLTGDFNTLHHLLDPHVKFNIGEFESHGMEHLWRAWEEWRFHHISLEDVRVQGDKAHLHFRSTVHYNGRTKRVDTHVEIKVVNGRFKEVHIRIH”, “SEEEREAQTFYEEWRENFRTGDFDRLHELMDPNARIHQGDKLIIGRQLLEHWRHRFKNIRVDFDLKHIEVQGEKIILRLHFEISIDGRTEHYDMIMIVHKVDGVWIVKSFTIK” is lower in protease stability score: 1.59 for the first, 1.43 for the second.

First: SEDHENLRKSLEFFKHVVDTGDFRKLLQLADPNTRIIINGQTVHGMELTQKIWIHQFREAGHTRIHIRIEDIDVQGDKIQIDGKLDINGQERDTNLFIEKVNGRWIIRSIEFQ
Second: DEEEKYSKEANTMSRHLVETGDEEIMSKLLDPDVRNDVDGVEFHGRELLSRILKEWRVRFESMHIEDEELQGDKVIVHGRELVRMIYDGKTFNTERKVIFIVVKINGRWFIKEVKVL
The protease stability score of the first is higher: 1.38 for the first, 0.751 for the second.

First: DDRERATRELLKLLWDAMKTGDEELFYKLADPDTRMIINGRELHGMEEVSRILLELLTHMRLKNITIRDIDVQGDKVDVHGELHGEVGDKSHTFETHIIILKVNGKWVLRSYIIR
Second: SEDREFMKTDLERWRHDLLTGDEESSHRLADPHVRVYIGDKEFIGREELRRVLREFIERFKGARIEVRLRSLHLIDGRMHIDTEWHIHVGEKHIMLDIKINQDKVNGRWELRNEVIS
The protease stability score of the first is higher: 1.55 for the first, 1.11 for the second.

First: DEVEHLLELMFRLIIETIRTGDEKLLEHLVDPNAKSLIDGRDYHGREMARHWHNRVDHLNDVHINDRKVQGEKIELDVRVDGRVGDKRIDERVHIIAFKINGQWIIHKMEVR
Second: HEHEEEVRSMTRLFLHAFVTGDWRTIVELIDPNVRTWFNGKDDHGRESLFKNLIRVLEEFGADHVDITIEEMEVQGNKVRVKMIIEVIVGDKDLRLSINQQAYKVDGRWRVKEIIIH
The protease stability score of the first is higher: 0.991 for the first, 0.725 for the second.

First: NERKKFIEELARLYFKWWLTGDFENLLRNADPNTRIDVNGREIIGREKFVEELREHVDKFKNIREDLHDMDLQGDKVILHIRMNVDGKTIEVRVEIFVINGQIRSESWRFE
Second: SEKEKLSKDLTRLLLEIIMTGDWKALSDNMDPEARQDIGDKHIVGREIISQFKMELDEEAGFKHSEIQRIRIIGDKIEMDVHVDQGDKHHTVHIIVIIVNGRIKHVEVRIR
The protease stability score of the first is lower: 1.34 for the first, 2 for the second.

First: SEESEHEEIIAEVTLELLATGDWRTLYELFDPNVRVHVGDKRSIGREQFVKIWKEFLEKFKNVVYKFKDIKWINGVVHIHMTLEYNGRRIEVNIHNFVYDGKIEHIHIEFKHL
Second: DESEKDSHMASLHIIELIETGDWRELRELLDPRTRLHIGDKDIHGREEALRNIIRVWHHMRIHRVHIRSIRLQGDYVRVEFEVDGTIDGKHHRIEVEFVAQKIDGRWHLKSEIYH
The protease stability score of the first is higher: 1.66 for the first, 1.12 for the second.
